According to US20220089647A1 (FUJIFILM, published 2022):
Starred links: 1 amine or outer side, 2 acyl side, 3 side chain; linkers in the order of their positions; H or OH if unused. Positions of bridges follow the written chain, without caps; N, C: chain ends. Non-standard residues stand in square brackets, D forms with d. Primed or numbered codes have the meaning given here. No end group written: not given here. Dab(acetyl)″ = 2-amino-4-(acetylamino)butanoic acid, acetyl CH3 carbon bonded to the S of Hcy (S-CH2-C(=O)-NH-), O=C(C[*:3])NCC[C@H](N[*:1])C(=O)[*:2]; Dab(acetyl) = 2-amino-4-acetylamino-butanoic acid residue (N-γ-acetyl-diaminobutyric acid), CC(=O)NCC[C@H](N[*:1])C(=O)[*:2]; Dap(acetyl) = 2-amino-3-acetylamino-propanoic acid residue, CC(=O)NC[C@H](N[*:1])C(=O)[*:2]; COCH2 = acetyl group that carries the bridge; hCys = N[C@@H](CCS)C(=O)O; Dab = NCC[C@H](N)C(=O)O

B1: Cyclic peptide 7 (peptide)
peptide: KKKGXIPRGDNFRX
modifications: not fully specified; KKKG-(Hcy)-IPRGDNFR(Dab(acetyl)); thioether bond Hcy-Dab(acetyl)
B2: Cyclic peptide 138 (peptide)
peptide: KKKGXIPRGDTFRCA
modifications: not fully specified; KKKG(Dab(acetyl))IPRGDTFR(C)A; thioether bond Dab(acetyl)-Cys
B3: Cyclic peptide 12 (peptide)
peptide: KKKXIPRGDNFRX
modifications: not fully specified; KKK(Dap(acetyl))IPRGDNFR-(Hcy); thioether bond Dap(acetyl)-Hcy
B4: Cyclic peptide 135 (peptide)
peptide: KKKGXIPRGDTFRXA
modifications: not fully specified; KKKG(Lys(acetyl))IPRGDTFR-(Pen)-A; thioether bond Lys(acetyl)-Pen
B5: Cyclic peptide 68 (peptide)
peptide: KKKGXXPRGDTFRXA
modifications: not fully specified; KKKG-(Hcy)-(HmY)-PRGDTFR(Dab(acetyl))A; HmY = homotyrosine; thioether bond Hcy-Dab(acetyl)
B6: Cyclic peptide 129 (peptide)
peptide: KKKGXIPRGDTFRXA
modifications: not fully specified; KKKG-(Pen)-IPRGDTFR(Dab(acetyl))A; thioether bond Pen-Dab(acetyl)
B7: Cyclic peptide 131 (peptide)
peptide: KKKGXIPRGDTFRXA
modifications: not fully specified; KKKG-(Pen)-IPRGDTFR(Lys(acetyl))A; thioether bond Pen-Lys(acetyl)
B8: Cyclic peptide 80 (peptide)
peptide: KKKAXIPRGDTPRXA
modifications: not fully specified; KKKA-(Hcy)-IPRGDTPR(Dab(acetyl))A; thioether bond Hcy-Dab(acetyl)
B9: Cyclic peptide 82 (peptide)
peptide: KKKAXIPRGDTFTXA
modifications: not fully specified; KKKA-(Hcy)-IPRGDTFT(Dab(acetyl))A; thioether bond Hcy-Dab(acetyl)
B10: Cyclic peptide 72 (peptide)
peptide: KKKGXIPRGDSFRXA
modifications: not fully specified; KKKG-(Hcy)-IPRGDSFR(Dab(acetyl))A; thioether bond Hcy-Dab(acetyl)
B11: Cyclic peptide 124 (peptide)
peptide: KKKAXIPRGDSFAXA
modifications: not fully specified; KKKA(Dab(acetyl))IPRGDSFA-(Hcy)-A; thioether bond Dab(acetyl)-Hcy
B12: Cyclic peptide 137 (peptide)
peptide: KKKAXIPRGDSFAXA
modifications: not fully specified; KKKA(Dab(acetyl))IPRGDSFA-(Pen)-A; thioether bond Dab(acetyl)-Pen
B13: Cyclic peptide 79 (peptide)
peptide: KKKAXIPRGDAFRXA
modifications: not fully specified; KKKA-(Hcy)-IPRGDAFR(Dab(acetyl))A; thioether bond Hcy-Dab(acetyl)
B14: Cyclic peptide 76 (peptide)
peptide: KKKAXITRGDTFRXA
modifications: not fully specified; KKKA-(Hcy)-ITRGDTFR(Dab(acetyl))A; thioether bond Hcy-Dab(acetyl)
B15: Cyclic peptide 81 (peptide)
peptide: KKKAXIPRGDTYRXA
modifications: not fully specified; KKKA-(Hcy)-IPRGDTYR(Dab(acetyl))A; thioether bond Hcy-Dab(acetyl)
B16: Cyclic peptide 133 (peptide)
peptide: KKKGXIPRGDTFRXA
modifications: not fully specified; KKKG(Dab(acetyl))IPRGDTFR-(Pen)-A; thioether bond Dab(acetyl)-Pen

Assays:
human integrin αvβ5 [1] = biological target: T1, human integrin αvβ5 (human, UniProt P06756 31-992; P18084 24-719, limits assumed); experiment: SPR, Biacore 3000, peptide immobilised; A = KD 50 nM or less
T1 construct: Heterodimer flowed as analyte at 30, 100, 300 and 1,000 nM in HEPES buffer with 5 mM MgCl2
T1 sequence (P06756 31-992 limits assumed, chain 1 of 2): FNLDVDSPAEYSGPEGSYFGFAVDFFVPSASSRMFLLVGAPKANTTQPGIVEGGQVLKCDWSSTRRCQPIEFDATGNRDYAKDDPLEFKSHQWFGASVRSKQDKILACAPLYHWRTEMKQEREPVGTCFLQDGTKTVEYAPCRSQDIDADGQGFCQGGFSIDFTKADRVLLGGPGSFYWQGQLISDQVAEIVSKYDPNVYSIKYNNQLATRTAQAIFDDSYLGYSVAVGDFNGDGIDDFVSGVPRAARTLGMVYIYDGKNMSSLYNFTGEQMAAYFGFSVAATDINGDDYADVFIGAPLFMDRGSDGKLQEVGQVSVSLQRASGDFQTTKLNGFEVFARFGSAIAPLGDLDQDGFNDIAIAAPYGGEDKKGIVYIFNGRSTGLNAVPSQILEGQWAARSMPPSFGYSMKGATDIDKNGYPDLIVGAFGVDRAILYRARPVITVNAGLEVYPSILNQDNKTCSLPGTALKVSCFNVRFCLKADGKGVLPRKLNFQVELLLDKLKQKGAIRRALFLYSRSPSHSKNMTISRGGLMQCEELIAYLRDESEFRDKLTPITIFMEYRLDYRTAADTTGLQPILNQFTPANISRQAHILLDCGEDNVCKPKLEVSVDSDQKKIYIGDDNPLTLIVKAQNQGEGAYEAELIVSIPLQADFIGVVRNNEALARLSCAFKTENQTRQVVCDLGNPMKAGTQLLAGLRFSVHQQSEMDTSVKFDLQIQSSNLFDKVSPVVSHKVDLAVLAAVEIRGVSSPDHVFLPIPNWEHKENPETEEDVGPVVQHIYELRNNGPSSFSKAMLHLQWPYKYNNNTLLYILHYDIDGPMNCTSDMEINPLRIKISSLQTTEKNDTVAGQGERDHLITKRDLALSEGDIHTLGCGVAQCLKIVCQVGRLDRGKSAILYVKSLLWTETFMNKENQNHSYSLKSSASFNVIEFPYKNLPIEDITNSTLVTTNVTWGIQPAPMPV
T1 sequence (P18084 24-719 limits assumed, chain 2 of 2): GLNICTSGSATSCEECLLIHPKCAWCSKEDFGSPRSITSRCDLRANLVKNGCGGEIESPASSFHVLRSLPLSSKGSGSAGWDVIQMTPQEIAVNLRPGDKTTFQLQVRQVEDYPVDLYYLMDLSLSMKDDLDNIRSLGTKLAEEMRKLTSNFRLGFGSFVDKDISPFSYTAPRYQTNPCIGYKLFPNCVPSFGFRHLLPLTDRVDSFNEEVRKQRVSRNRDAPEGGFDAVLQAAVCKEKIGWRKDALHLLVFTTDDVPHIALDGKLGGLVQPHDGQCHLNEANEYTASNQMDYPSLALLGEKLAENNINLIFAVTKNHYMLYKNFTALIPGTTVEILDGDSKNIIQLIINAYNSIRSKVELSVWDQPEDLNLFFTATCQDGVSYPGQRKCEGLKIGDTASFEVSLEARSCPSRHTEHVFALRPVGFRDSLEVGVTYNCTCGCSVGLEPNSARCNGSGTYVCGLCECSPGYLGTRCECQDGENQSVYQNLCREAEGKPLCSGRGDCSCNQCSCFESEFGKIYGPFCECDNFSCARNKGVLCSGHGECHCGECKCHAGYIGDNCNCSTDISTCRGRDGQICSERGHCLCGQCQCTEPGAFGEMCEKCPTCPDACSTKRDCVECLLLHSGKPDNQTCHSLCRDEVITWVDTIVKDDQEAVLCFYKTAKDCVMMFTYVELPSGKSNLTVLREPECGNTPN
Experimental: (§1) However, only for the cyclic peptides 125, 126, and 127, in which the number of lysine residues having an amino group as the immobilizing functional group was zero, the amount of the sample solution to be supplied to the sensor chip was set to 500 μL instead of 20 μL. Further, 70 μL of the mixed aqueous solution of 0.2 M EDC and 0.04 M NHS was added to another flow channel of the same sensor chip without immobilizing the sample, and then blocking treatment and washing treatment were carried out. Hereinafter, the obtained immobilization-treated sensor chip is referred to as an “immobilization-treated sensor chip A”.
(§2) After adding human integrin αvβ5 for 10 minutes at 25° C., which was diluted to 30 nM using a HEPES buffer solution to which magnesium chloride was added to 5 mM, in each flow channel of the immobilization-treated sensor chip A prepared in (1) above, the same HEPES buffer solution (containing 5 mM magnesium chloride) was allowed to flow as a running buffer for 30 minutes, and measurement was carried out with Biacore 3000. Then, a regeneration treatment of removing human integrin αvβ5 was carried out by allowing a 0.5 M EDTA aqueous solution to flow through each flow channel for 10 minutes. Further, the above-described measurement process consisting of adding integrin for 10 minutes, allowing a running buffer to flow for 30 minutes, carrying out measurement with Biacore 3000, and carrying out regeneration treatment with 0.5 M EDTA aqueous solution was carried out in the same manner for 100 nM human integrin αvβ5, 300 nM human integrin αvβ5, and 1,000 nM human integrin αvβ5. Dissociation constant between the cyclic peptide and human integrin αvβ5 was calculated from the difference between the value measured by Biacore 3000 in the flow channel immobilized with the cyclic peptide and the value measured by Biacore 3000 in the flow channel unimmobilized with the cyclic peptide, in a case where each concentration of human integrin αvβ5 was allowed to flow, and the integrin binding property was evaluated according to the following evaluation standards. It is preferable that the evaluation result satisfies the evaluation standard A, B, or C.

human integrin αvβ5 [2] = biological target: T1, human integrin αvβ5; experiment: SPR, Biacore 3000, peptide immobilised; B = KD more than 50 nM and 100 nM or less
Experimental: as §1, §2

Binder	dissociation constant (KD) (human integrin αvβ5 [2])	dissociation constant (human integrin αvβ5 [2])	also measured
B1			dissociation constant (KD) (human integrin αvβ5 [1]): ≤ 50 nM
KKKG[hCys]IPRGDTFR[Dab(acetyl)″] (thioether 5-14) [Cyclic peptide 59]			dissociation constant (KD) (human integrin αvβ5 [1]): ≤ 50 nM
KKK[hCys]AIPRGDNFR[Dab(acetyl)]A (thioether 4-14) [Cyclic peptide 15]	50 to 100 nM		
KKKA[hCys]VTRGDVFT[Dab(acetyl)″]A (thioether 5-14) [Cyclic peptide 113]		50 to 100 nM	
B2		50 to 100 nM	
KKKG[hCys]AIPRGDNFRA[Dab](COCH2)A (thioether 5-16) [Cyclic peptide 20]	50 to 100 nM		
KKKG[hCys]AIPRGDTFRA[Dab(acetyl)″]A (thioether 5-16) [Cyclic peptide 67]			dissociation constant (human integrin αvβ5 [1]): ≤ 50 nM
B3	50 to 100 nM		
KKK[hCys]IPRGDNF[Dab(acetyl)″]A (thioether 4-12) [Cyclic peptide 10]	50 to 100 nM		
B4		50 to 100 nM	
KKK[hCys]AIPRGDNFRA[Dab](COCH2)A (thioether 4-15) [Cyclic peptide 17]	50 to 100 nM		
B5			dissociation constant (human integrin αvβ5 [1]): ≤ 50 nM
B6		50 to 100 nM	
KKK[hCys]IPRGDNFRA[Dab](COCH2)A (thioether 4-14) [Cyclic peptide 16]	50 to 100 nM		
KKKG[hCys]IPRGDTF[Dab(acetyl)″]A (thioether 5-13) [Cyclic peptide 58]			dissociation constant (KD) (human integrin αvβ5 [1]): ≤ 50 nM
KKK[hCys]IPRGDVF[Dab(acetyl)″] (thioether 4-12) [Cyclic peptide 65]		50 to 100 nM	
KKKA[Dap(acetyl)]EPRGDNYR[hCys]D (thioether 5-14) [Cyclic peptide 48]			dissociation constant (KD) (human integrin αvβ5 [1]): ≤ 50 nM
B7		50 to 100 nM	
KKK[hCys]DPRGDNFR[Dab](COCH2)A (thioether 4-13) [Cyclic peptide 22]	50 to 100 nM		
KKK[hCys]IPRGDTFR[Dab(acetyl)″]A (thioether 4-13) [Cyclic peptide 57]			dissociation constant (KD) (human integrin αvβ5 [1]): ≤ 50 nM
KKK[hCys]EPRGDNFR[Dab](COCH2)A (thioether 4-13) [Cyclic peptide 23]			dissociation constant (KD) (human integrin αvβ5 [1]): ≤ 50 nM
KKK[hCys]IPRGDSFR[Dab](COCH2)A (thioether 4-13) [Cyclic peptide 25]	50 to 100 nM		
KKK[hCys]YPRGDNFR[Dab](COCH2)A (thioether 4-13) [Cyclic peptide 24]			dissociation constant (KD) (human integrin αvβ5 [1]): ≤ 50 nM
KKK[hCys]IPRGDNYR[Dab](COCH2)A (thioether 4-13) [Cyclic peptide 26]	50 to 100 nM		
KKKG[hCys]LPRGDSFR[Dab](COCH2)A (thioether 5-14) [Cyclic peptide 28]	50 to 100 nM		

Binder	dissociation constant (KD) (human integrin αvβ5 [2])	dissociation constant (human integrin αvβ5 [2])	also measured
B8		50 to 100 nM	
B9		50 to 100 nM	
B10		50 to 100 nM	
B11		50 to 100 nM	
B12		50 to 100 nM	
B13		50 to 100 nM	
B14		50 to 100 nM	
B15		50 to 100 nM	
B16		50 to 100 nM	
KKK[hCys]AAIPRGDNFR[Dab](COCH2)A (thioether 4-15) [Cyclic peptide 18]	50 to 100 nM		
KKK[hCys]IPRGDNFRAA[Dab](COCH2)A (thioether 4-15) [Cyclic peptide 19]			dissociation constant (KD) (human integrin αvβ5 [1]): ≤ 50 nM
KKKA[hCys]EPRGDNYR[Dab(acetyl)″]D (thioether 5-14) [Cyclic peptide 42]	50 to 100 nM		
KKKA[hCys]EPRGDNYR[Dab(acetyl)″]G (thioether 5-14) [Cyclic peptide 40]	50 to 100 nM		
KKKA[hCys]EPRGDNYR[Dab(acetyl)″]A (thioether 5-14) [Cyclic peptide 41]	50 to 100 nM		
KKKA[hCys]EPRGDNYR[Dab(acetyl)″]E (thioether 5-14) [Cyclic peptide 43]	50 to 100 nM		
KKKA[hCys]EPRGDNFR[Dab](COCH2)D (thioether 5-14) [Cyclic peptide 34]			dissociation constant (KD) (human integrin αvβ5 [1]): ≤ 50 nM
KKKA[hCys]LPRGDNYR[Dab](COCH2)D (thioether 5-14) [Cyclic peptide 31]			dissociation constant (KD) (human integrin αvβ5 [1]): ≤ 50 nM
KKKA[hCys]YPRGDNYR[Dab](COCH2)D (thioether 5-14) [Cyclic peptide 32]			dissociation constant (KD) (human integrin αvβ5 [1]): ≤ 50 nM
KKKA[hCys]IPRGDNYR[Dab](COCH2)D (thioether 5-14) [Cyclic peptide 30]			dissociation constant (KD) (human integrin αvβ5 [1]): ≤ 50 nM
KKKE[hCys]EPRGDNYR[Dab](COCH2)D (thioether 5-14) [Cyclic peptide 39]			dissociation constant (KD) (human integrin αvβ5 [1]): ≤ 50 nM
KKKG[hCys]EPRGDNYR[Dab](COCH2)D (thioether 5-14) [Cyclic peptide 37]	50 to 100 nM		
KKKD[hCys]EPRGDNYR[Dab](COCH2)D (thioether 5-14) [Cyclic peptide 38]	50 to 100 nM		
KKKA[hCys]VPRGDNYR[Dab](COCH2)D (thioether 5-14) [Cyclic peptide 29]	50 to 100 nM		
KKKA[hCys]EPRGDNYE[Dab](COCH2)D (thioether 5-14) [Cyclic peptide 36]	50 to 100 nM		
